Measured values as given in patent US20250215059A1 (REGENTS OF THE UNIVERSITY OF COLORADO A BODY CORPORATE, published 2025).

Assays:
[1] = target: T1, tau aggregates in HEK293 tau biosensor cells (4R repeat domain of tau (K18) with the P301S mutation fused to … (UniProt P10636-8 244-372)); experiment: cell-based or functional assay
[2] = target: T1, tau aggregates in HEK293 tau biosensor …; experiment: Halo (JF646) imaging in seeded HEK293 tau biosensor cells

T1 sequence (P10636 561-689 P618S): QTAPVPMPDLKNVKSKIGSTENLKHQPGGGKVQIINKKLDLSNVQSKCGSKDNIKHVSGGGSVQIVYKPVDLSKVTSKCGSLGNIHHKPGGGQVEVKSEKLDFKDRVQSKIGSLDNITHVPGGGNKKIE

Row | tau aggregation by flow cytometry (FRET+ cells and integrated FRET density, normalized to no insert Halo) [1] [% decrease] | binding result [2] | Binder
1 |  | no binding | SRRM2_7-Halo (other, JF646 Halo ligand covalently bound to the Halo tag, also called truncation 7) MYNGIGLPTPRGSGTNGYVQRNLSLVRGRRGERPDYKGEEELRRLEAALVKRPNPDILDHERKRRVELRCLELEEMMEEQGYEEQQIQEKVATFRLMLLEKDVNPGGKEETPGQRPAVTETHQLAELNEKKNERLRAAFGISDSYVDGSSFDPQRRAREAKQPAPEPPKPYSLVRESSSSRSPTPKQKKKKKKKDRGRRSESSSPRRERKKSSKKKKHRSESESKKRKHRSPTPKSKRKSKDKKRKRSRSTTPAPKSRRAHRSTSADSASSSDTSRSRSRSAAAKTHTTALAGRSPSPASGRRGEGDAPFSEPGTTSTQRPSSPETATKQPSSPYEDKDKDKKEKSATRPSPSPERSSTGPEPPAPTPLLAERHGGSPQPLATTPLSQEPVNPPSEASPTRDRSPPKSPEKLPQSSSSESSPPSPQPTKVMAEIGTGFPFDPHYVEVLGERMHYVDVGPRDGTPVLFLHGNPTSSYVWRNIIPHVAPTHRCIAPDLIGMGKSDKPDLGYFFDDHVRFMDAFIEALGLEEVVLVIHDWGSALGFHWAKRNPERVKGIAFMEFIRPIPTWDEWPEFARETFQAFRTTDVGRKLIIDQNVFIEGTLPMGVVRPLTEVEMDHYREPFLNPVDREPLWRFPNELPIAGEPANIVALVEEYMDWLHQSPVPKLLFWGTPGVLIPPAEAARLAKSLPNCKAVDIGPGLNLLQEDNPDLIGSEIARWLSTLEISG
2 |  | no binding | SRRM2_6-Halo (other, JF646 Halo ligand covalently bound to the Halo tag, also called truncation 6) MYNGIGLPTPRGSGTNGYVQRNLSLVRGRRGERPDYKGEEELRRLEAALVKRPNPDILDHERKRRVELRCLELEEMMEEQGYEEQQIQEKVATFRLMLLEKDVNPGGKEETPGQRPAVTETHQLAELNEKKNERLRAAFGISDSYVDGSSFDPQRRAREAKQPAPEPPKPYSLVRESSSSRSPTPKQKKKKKKKDRGRRSESSSPRRERKKSSKKKKHRSESESKKRKHRSPTPKSKRKSKDKKRKRSRSTTPAPKSRRAHRSTSADSASSSDTSRSRSRSAAAKTHTTALAGRSPSPASGRRGEGDAPFSEPGTTSTQRPSSPETATKQPSSPYEDKDKDKKEKSATRPSPSPERSSTGPEPPAPTPLLAERHGGSPQPLATTPLSQEPVNPPSEASPTRDRSPPKSPEKLPQSSSSESSPPSPQPTKVSRHASSSPESPKPAPAPGSHREISSSPTSKNRSHGRAKRDKSHSHTPSRRMGRSRSPATAKRGRSRSRTPTKRGHSRSRSPQWRRSRSAQRWGRSRSPQRRGRSRSPQRPGWSRSRNTQRRGRSRSARMAEIGTGFPFDPHYVEVLGERMHYVDVGPRDGTPVLFLHGNPTSSYVWRNIIPHVAPTHRCIAPDLIGMGKSDKPDLGYFFDDHVRFMDAFIEALGLEEVVLVIHDWGSALGFHWAKRNPERVKGIAFMEFIRPIPTWDEWPEFARETFQAFRTTDVGRKLIIDQNVFIEGTLPMGVVRPLTEVEMDHYREPFLNPVDREPLWRFPNELPIAGEPANIVALVEEYMDWLHQSPVPKLLFWGTPGVLIPPAEAARLAKSLPNCKAVDIGPGLNLLQEDNPDLIGSEIARWLSTLEISG

The remaining lines, values behind:

Row | Binder | tau aggregation by flow cytometry (FRET+ cells and integrated FRET density, normalized to no insert Halo) [1] [% decrease] | binding result [2]
3 | 42-polyserine-TNPO3-halo (other) MEGAKPTLQLVYQAVQALYHDPDPSGKERASFWLGELQRSVHAWEISDQLLQIRQDVESCYFAAQTMKMKIQTSFYELPTDSHASLRDSLLTHIQNLKDLSPVIVTQLALAIADLALQMPSWKGCVQTLVEKYSNDVTSLPFLLEILTVLPEEVHSRSLRIGANRRTEIIEDLAFYSSTVVSLLMTCVEKAGTDEKMLMKVFRCLGSWFNLGVLDSNFMANNKLLALLFEVLQQDKTSSNLHEAASDCVCSALYAIENVETNLPLAMQLFQGVLTLETAYHMAVAREDLDKVLNYCRIFTELCETFLEKIVCTPGQGLGDLRTLELLLICAGHPQYEVVEISFNFWYRLGEHLYKTNDEVIHGIFKAYIQRLLHALARHCQLEPDHEGVPEETDDFGEFRMRVSDLVKDLIFLIGSMECFAQLYSTLKEGNPPWEVTEAVLFIMAAIAKSVDPENNPTLVEVLEGVVRLPETVHTAVRYTSIELVGEMSEVVDRNPQFLDPVLGYLMKGLCEKPLASAAAKAIHNICSVCRDHMAQHFNGLLEIARSLDSFLLSPEAAVGLLKGTALVLARLPLDKITECLSELCSVQVMALKKLLSQEPSNGISSDPTVFLDRLAVIFRHTNPIVENGQTHPCQKVIQEIWPVLSETLNKHRADNRIVERCCRCLRFAVRCVGKGSAALLQPLVTQMVNVYHVHQHSCFLYLGSILVDEYGMEEGCRQGLLDMLQALCIPTFQLLEQQNGLQNHPDTVDDLFRLATRFIQRSPVTLLRSQVVIPILQWAIASTTLDHRDANCSVMRFLRDLIHTGVANDHEEDFELRKELIGQVMNQLGQQLVSQLLHTCCFCLPPYTLPDVAEVLWEIMQVDRPTFCRWLENSLKGLPKETTVGAVTVTHKQLTDFHKQVTSAEECKQVCWALRDFTRLFRGTELGSTSPVWWNSADISSSSSSSSSSSSSSSSSSSSSSSSSSSSSSSSSSSSSSSSSSGGSGGSGGGSEIGTGFPFDPHYVEVLGERMHYVDVGPRDGTPVLFLHGNPTSSYVWRNIIPHVAPTHRCIAPDLIGMGKSDKPDLGYFFDDHVRFMDAFIEALGLEEVVLVIHDWGSALGFHWAKRNPERVKGIAFMEFIRPIPTWDEWPEFARETFQAFRTTDVGRKLIIDQNVFIEGTLPMGVVRPLTEVEMDHYREPFLNPVDREPLWRFPNELPIAGEPANIVALVEEYMDWLHQSPVPKLLFWGTPGVLIPPAEAARLAKSLPNCKAVDIGPGLNLLQEDNPDLIGSEIARWLSTLEISG | ~50 | 
4 | SRRM2_5-Halo (other, JF646 Halo ligand covalently bound to the Halo tag, also called truncation 5) MYNGIGLPTPRGSGTNGYVQRNLSLVRGRRGERPDYKGEEELRRLEAALVKRPNPDILDHERKRRVELRCLELEEMMEEQGYEEQQIQEKVATFRLMLLEKDVNPGGKEETPGQRPAVTETHQLAELNEKKNERLRAAFGISDSYVDGSSFDPQRRAREAKQPAPEPPKPYSLVRESSSSRSPTPKQKKKKKKKDRGRRSESSSPRRERKKSSKKKKHRSESESKKRKHRSPTPKSKRKSKDKKRKRSRSTTPAPKSRRAHRSTSADSASSSDTSRSRSRSAAAKTHTTALAGRSPSPASGRRGEGDAPFSEPGTTSTQRPSSPETATKQPSSPYEDKDKDKKEKSATRPSPSPERSSTGPEPPAPTPLLAERHGGSPQPLATTPLSQEPVNPPSEASPTRDRSPPKSPEKLPQSSSSESSPPSPQPTKVSRHASSSPESPKPAPAPGSHREISSSPTSKNRSHGRAKRDKSHSHTPSRRMGRSRSPATAKRGRSRSRTPTKRGHSRSRSPQWRRSRSAQRWGRSRSPQRRGRSRSPQRPGWSRSRNTQRRGRSRSARRGRSHSRSPATRGRSRSRTPARRGRSRSRTPARRRSRSRTPTRRRSRSRTPARRGRSRSRTPARRRSRTRSPVRRRSRSRSPARRSGRSRSRTPARRGRSRSRTPARRGRSRSRTPARRSGRSRSRTPARRGRSRSRTPRRGRSRSRSLVRRGRSHSRTPQRRGRSGSSSERKNKSRTSQRRSRSNSSPEMKKSRISSRRSRSLSSPRSKAKSRLSLRRSLSGSSPCPKQKSQTPPRRSRSGSSQPKMAEIGTGFPFDPHYVEVLGERMHYVDVGPRDGTPVLFLHGNPTSSYVWRNIIPHVAPTHRCIAPDLIGMGKSDKPDLGYFFDDHVRFMDAFIEALGLEEVVLVIHDWGSALGFHWAKRNPERVKGIAFMEFIRPIPTWDEWPEFARETFQAFRTTDVGRKLIIDQNVFIEGTLPMGVVRPLTEVEMDHYREPFLNPVDREPLWRFPNELPIAGEPANIVALVEEYMDWLHQSPVPKLLFWGTPGVLIPPAEAARLAKSLPNCKAVDIGPGLNLLQEDNPDLIGSEIARWLSTLEISG |  | no binding
5 | SRRM2_4-Halo (other, JF646 Halo ligand covalently bound to the Halo tag, also called truncation 4) MYNGIGLPTPRGSGTNGYVQRNLSLVRGRRGERPDYKGEEELRRLEAALVKRPNPDILDHERKRRVELRCLELEEMMEEQGYEEQQIQEKVATFRLMLLEKDVNPGGKEETPGQRPAVTETHQLAELNEKKNERLRAAFGISDSYVDGSSFDPQRRAREAKQPAPEPPKPYSLVRESSSSRSPTPKQKKKKKKKDRGRRSESSSPRRERKKSSKKKKHRSESESKKRKHRSPTPKSKRKSKDKKRKRSRSTTPAPKSRRAHRSTSADSASSSDTSRSRSRSAAAKTHTTALAGRSPSPASGRRGEGDAPFSEPGTTSTQRPSSPETATKQPSSPYEDKDKDKKEKSATRPSPSPERSSTGPEPPAPTPLLAERHGGSPQPLATTPLSQEPVNPPSEASPTRDRSPPKSPEKLPQSSSSESSPPSPQPTKVSRHASSSPESPKPAPAPGSHREISSSPTSKNRSHGRAKRDKSHSHTPSRRMGRSRSPATAKRGRSRSRTPTKRGHSRSRSPQWRRSRSAQRWGRSRSPQRRGRSRSPQRPGWSRSRNTQRRGRSRSARRGRSHSRSPATRGRSRSRTPARRGRSRSRTPARRRSRSRTPTRRRSRSRTPARRGRSRSRTPARRRSRTRSPVRRRSRSRSPARRSGRSRSRTPARRGRSRSRTPARRGRSRSRTPARRSGRSRSRTPARRGRSRSRTPRRGRSRSRSLVRRGRSHSRTPQRRGRSGSSSERKNKSRTSQRRSRSNSSPEMKKSRISSRRSRSLSSPRSKAKSRLSLRRSLSGSSPCPKQKSQTPPRRSRSGSSQPKAKSRTPPRRSRSSSSPPPKQKSKTPSRQSHSSSSPHPKVKSGTPPRQGSITSPQANEQSVTPQRRSCFESSPDPELKSRTPSRHSCSGSSPPRVKSSTPPRQSPSRSSSPQPKVKAIISPRQRSHSGSSSPSPSRVTSRTTPRRSRSVSPCSNVESRLLPRYSHSGSSSPDTKVKPETPPRQSHSGSISPYPKVKAQTPPGPSLSGSKSPCPQEKSKDSLVQSCPGSLSLCAGVKSSTPPGESYFGVSSLQLKGQSQTSPDHRSDTSSPEVRQSHSESPSLQSKSQTSPKGGRSRSSSPVTELASRSPIRQDRGEFSASPMLKSGMSPEQSRFQSDSSSYPTVDSNSLLGQSRLETAESKEKMALPPQEDATASPPRQKDKFSPFPVQDRPESSLVFKDTLRTPPRERSGAGSSPETKEQNSALPTSSQDEELMEVVEKSEEPAGQILSHLSSELKEMSTSNFESSPEVEERPAVSLTLDQSQSQASLEAVEVPSMASSWGGPHFSPEHKELSNSPLRENSFGSPLEFRNSGPLGTEMNTGFSSEVKEDLNGPFMAEIGTGFPFDPHYVEVLGERMHYVDVGPRDGTPVLFLHGNPTSSYVWRNIIPHVAPTHRCIAPDLIGMGKSDKPDLGYFFDDHVRFMDAFIEALGLEEVVLVIHDWGSALGFHWAKRNPERVKGIAFMEFIRPIPTWDEWPEFARETFQAFRTTDVGRKLIIDQNVFIEGTLPMGVVRPLTEVEMDHYREPFLNPVDREPLWRFPNELPIAGEPANIVALVEEYMDWLHQSPVPKLLFWGTPGVLIPPAEAARLAKSLPNCKAVDIGPGLNLLQEDNPDLIGSEIARWLSTLEISG |  | no binding
